Experimental data published in the nanobody polyreactivity screen of Harvey et al. (2022).

Test: yeast display, Sf9 membrane polyspecificity reagent, FACS + sequencing; frameworks hold sequencing errors
In short: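 Polyreactivity labels are assigned by the sorting gate from which each nanobody was recovered. The gates were low and high (top ~1%), set on anti-HA fluorescence for expression and streptavidin fluorescence for reagent binding. Before sorting, galactose-induced (36–48 hours) yeast display cells were stained for 1 hour at 4 °C with 10% biotinylated, detergent-solubilized Sf9 membrane reagent.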

| Sequence | polyreactivity (PSR sort gate) |
| --- | --- |
| QVQLVESGGGLVQAGGSLRLSCAASGSTFRLYAMGWYRQAPGKERELVAVISRSGGRTYADSVKGRFTISRDNAKNSVYFQMNSLKPEDTAVYYCAKARHKSATYTHDSWGQGTQVTVSS | high polyreactivity |
| QVQLVESGGGLVQAGGSLRLSCAASGSTFRLYTMGWYRQAPGKERELVASIRGSGGRTYYADSVKGRFTISRDNAKNTVYLQMNSLKPEDTAVYYCNAESYSTWSFGHRYEYDYWGQGTQVTVSS | low polyreactivity |
| QVQLVESGGGLVQAGGSLRLSCAASGSTFRPNAMGWYRQAPGKERELVATIRTSGGTTYYADSVKGRFTISRDNAKNTVYLQMNSLKPEDTAVYYCAATKFGSSYDYWGQGTQVTVSS | low polyreactivity |
| QVQLVESGGGLVQAGGSLRLSCAASGSTFRPYAMGWYRQAPGKERELVAAITSGGNTYYADSVKGRFTISRDNAKNTVYLQMNSLKPEDTAVYYCAARPYYYIVRGTEYDYWGQGTQVTVSS | high polyreactivity |
| QVQLVESGGGLVQAGGSLRLSCAASGSTFRPYAMGWYRQAPGKERELVARITGSGDSTYYADSVKGRFTISRDNAKNTVYLQMNSLKPEDTAVYYCAREFDYSLSGFDYWGQGTQVTVSS | low polyreactivity |
| QVQLVESGGGLVQAGGSLRLSCAASGSTFRRNAMGWYRQAPGKERELVAAITSGGSTYYADSVKGRFTISRDNAKNTVYLQMNSLKPEDTAVYYCNRLYRWKKPLDYDYWGQGTQVTVSS | high polyreactivity |
| QVQLVESGGGLVQAGGSLRLSCAASGSTFRRNAMGWYRQAPGKERELVAAITWRGTSTYYADSVKGRFTISRDNAKNTVYLQMNSLKPEDTAVYYCAADRFVRYWGQGTQVTVSS | high polyreactivity |
| QVQLVESGGGLVQAGGSLRLSCAASGSTFRRYAMGWYRPAPGKERELVAAISTRGGSTYYADSVKGRFTISRDNAKNTVYLQMNSLKPEDTAVYYCAADEPKYTSSSSRRYGYWGQGTQVTVSS | high polyreactivity |
| QVQLVESGGGLVQAGGSLRLSCAASGSTFRRYAMGWYRQAPGKERELGAAISRSGGTTYYADSVKGRFTISRDNAKNTVYLQMNSLKPEDTAVYYCNARYPVVRYDYWGQGTQVTVSS | high polyreactivity |
| QVQLVESGGGLVQAGGSLRLSCAASGSTFRRYAMGWYRQAPGKERELVATITKRGGSTYYADSVKGRFTISRDNAKNTVYLQMNSLKPEDTAVYYCAADSAYWTYEYWGQGTQVTVSS | high polyreactivity |
| QVQLVESGGGLVQAGGSLRLSCAASGSTFRRYAMGWYRQAPWKERELVAAITRRGITYYADSVKGRFTISRDNAKNTVYFQMNSLKPEDTAVYYCAATTFGPYALYPRYYYWGQGTQVTVSS | high polyreactivity |
| QVQLVESGGGLVQAGGSLRLSCAASGSTFRRYGMGWYRQAPGKEREWVAAISKGGTRTYYADSVKGRFTISRDNAKNTVYLQMNSLKPEDTAVYYCAAAGAPSSTPQKEYYWGQGTQVTVSS | high polyreactivity |
| QVQLVESGGGLVQAGGSLRLSCAASGSTFRSNAMGWYRPAPGKERELVAAISSRVGTTYYADSVKGRFTISRDNAKNTVYLQMNSLKPEDTAVYYCAAQGWRYYRTVVPMDYWGQGTQVTVSS | low polyreactivity |
| QVQLVESGGGLVQAGGSLRLSCAASGSTFRTNTMGWYRQAPGKERELVAAITGTGGSTYYADSVKGRFTISRDNAKNTVYLQMNSLKPEDTAVYYCAKRYYRWRRDYSWGQGTQVTVSS | high polyreactivity |
| QVQLVESGGGLVQAGGSLRLSCAASGSTFRTYAMGWYRQAPGKERELVAAISWSGGITYDADSVKGRFTISRDNAKNTVYLQMNSLKPEDTAVYFCDARLASWPLTYDFQWYEYWGQGTQVTVSS | low polyreactivity |
| QVQLVESGGGLVQAGGSLRLSCAASGSTFRVNAMGWYRQAPGKEREFVAGISFGGGSTYYADSVKGRFTISRDNAKNTVYLQMNSLKPEDTAVYYCNARGKGSGAVRYNYWGQGTQVTVSS | high polyreactivity |
| QVQLVESGGGLVQAGGSLRLSCAASGSTFRVNVMGLYRQAPGKERELVAAIDSGGSTYYADSVKGRFTISRDNAKNTVYLQMNSLKPEYTAVYYCNSRVDSPSPYDYWGQGTQVTVSS | low polyreactivity |
| QVQLVESGGGLVQAGGSLRLSCAASGSTFRVYAMGCYRQAPGKERELVAAISGSGGSTYYADSVKGRFTISRDNAKNTVYLQMNSLKPEDTAVYYCAARSWYTEYYWGQGTQVTVSS | high polyreactivity |
| QVQLVESGGGLVQAGGSLRLSCAASGSTFRVYAMGWYRQAPGKERELVAAITRSGGRTHYADSVKGRFTISRDNAKNTVYLQMNSLKPEDTAVYYCAARFYYTKPEDYYWGQGTQVTVSS | high polyreactivity |
| QVQLVESGGGLVQAGGSLRLSCAASGSTFRWNAMGWYRQAPGKERELVAAISNGGSTNYADSVKGRFTISRDNAKNTVYLQMNSLKPEDTAVYYCATDGWYGQHYYDYDFDYYYWGQGTQVTVSS | low polyreactivity |
| QVQLVESGGGLVQAGGSLRLSCAASGSTFRWNAMGWYRQAPGKERELVATITWGGGSTYYADSVKGRFTISRDNAKNTVYLQMNSLKPEDTAVYYCARRQRARYSYYQYNYWGQGTQVTVSS | high polyreactivity |

| Sequence | polyreactivity (PSR sort gate) |
| --- | --- |
| QVQLVESGGGLVQAGGSLRLSCAASGSTFRWYAMGWYRQAPGKERELVASITWSGGGTYYADSVKGRFTISRDNAKNTVYFQMNSLKPEDTAVYYCNRRTWRYETRGDDYWGQGTQVTVSS | high polyreactivity |
| QVQLVESGGGLVQAGGSLRLSCAASGSTFRYNPMGWYRQAPGNERELVAAISSGGYTNYADSVKGRFTISRDNAKNTVYLQMNSLKPEDTAVYYCAARYYPWKVNRFSYWYDYWGQGTLVTVSS | high polyreactivity |
| QVQLVESGGGLVQAGGSLRLSCAASGSTFRYNTMGWYRQAPGKERELVAAINISSSSTYYADSVKGRFTISRDNAKNTVYLQMNSLKPEDTAVYYCAKRDFVPIATDENDDYWGQGTQVTVSS | low polyreactivity |
| QVQLVESGGGLVQAGGSLRLSCAASGSTFRYNTMGWYRQAPGKERELVAGITSGGGRTYADSVKGRFTISRDNAKNTVYLQMNSLKPEDTAVYYCAAGKYYFLSRYDSWGQGTQVTVSS | low polyreactivity |
| QVQLVESGGGLVQAGGSLRLSCAASGSTFRYNTMGWYRQAPGTERELVATISWRGGRTYYADSVKGRFTISRDNAKNTVYLQMNSLKPEDTAVYYCASIATVPRDYGGNYWGQGTQVTVSS | low polyreactivity |
| QVQLVESGGGLVQAGGSLRLSCAASGSTFRYNVMGWYRQAPGKERDLVAAITRRGSRTYYADSVKGRFTISRDNAKNTVYLQMNSLKPEDTAVYYCNKYSLSVPANDDYWGQGSQVTVSS | high polyreactivity |
| QVQLVESGGGLVQAGGSLRLSCAASGSTFRYYALGWYRQAPGKERELVASISIGGGPTYYADSVKGRFTISRDNAKNTVYLQMHIQKPEDTAVYYCAAERTIRAARPVVRTFDYWGHGTQVTVSS | low polyreactivity |
| QVQLVESGGGLVQAGGSLRLSCAASGSTFRYYAMGGSRQEPGKESELVAVISTSGNTYYADSVKGRFTISRDNAKNSVYLQMNSLKPEDTAVYYCAARGVGGQISQEYDYWGQGTQVTVSS | low polyreactivity |
| QVQLVESGGGLVQAGGSLRLSCAASGSTFRYYAMGWYRKAPGKERELVAAITSSGGSTYYADSVKGRFTISRDNAKNTVYLQMNSLKPEDTAVYYCAVAVKNWVKLNYWGQGTQVTVSS | high polyreactivity |
| QVQLVESGGGLVQAGGSLRLSCAASGSTFRYYAMGWYRQAPGKERELVAAISGSGGRTYYADSVKGRFTISRDNAKNTVYLQMNSLKPEDTAVYYCITRGRRTDYDYWGQGNQVTVSS | high polyreactivity |
| QVQLVESGGGLVQAGGSLRLSCAASGSTFRYYAMGWYRQAPGKERELVAAISGSGGRTYYADSVKGRFTISRDNAKNTVYLQMNSLKPEDTAVYYCNTRGRRTDYDYWGQGTQVTVSS | high polyreactivity |
| QVQLVESGGGLVQAGGSLRLSCAASGSTFRYYAMGWYRQAPGKERELVAAISSSGGSTYYADSVKGRFTISRDNAKNTVYLQMNSLKPEDTAVYYCAARHYSYRVEYDYWGQGTQVTVSS | high polyreactivity |
| QVQLVESGGGLVQAGGSLRLSCAASGSTFRYYAMGWYRQAPGKERELVAAITWGGGNTYYADSVKGRFTISRDNAKNTVYLQMNSLKPEDTAVYYCNKVQSHWLDSWGQGTQVTVSS | low polyreactivity |
| QVQLVESGGGLVQAGGSLRLSCAASGSTFRYYAMGWYRQAPGKERELVAGITNGGRTNYADSVQGRFTISRDNAKNTVYLQMHSLKPEDTAVYYCAADLAWRRIGYNYWGQGTQVTVSS | high polyreactivity |
| QVQLVESGGGLVQAGGSLRLSCAASGSTFRYYAMGWYRQAPGKERELVASISSGGSTNYADSVKGRFTISRDNAKNTVYLQMNSLKPEDTAVYYCNADSWTVNRRYYYYRYEYWGQGTQVTVSS | low polyreactivity |
| QVQLVESGGGLVQAGGSLRLSCAASGSTFRYYAMGWYRQAPGKESELVAAITSSGTSTYYADSVKGRFTISRDNAKNTVYLQMNSLKPEDTAVYYCAAPPVYKWVSSRYDYWGQGTQVTVSS | low polyreactivity |
| QVQLVESGGGLVQAGGSLRLSCAASGSTFRYYAMGWYRQARGKERELVAAITSSGGRTYYADSVKGRFTISRDNAKNTVYLQMNSLKPEDTAVYYCAAYAYYHTGDDYWGQGTQVTVSS | high polyreactivity |
| QVQLVESGGGLVQAGGSLRLSCAASGSTFRYYARGWYRPAPGKERELVAAITRSGGSTYYADSVKGRFTISRDNAKNTVYLQMNSLKPEDTAVYYCAARWAYPHKTYGTEQTEYDYWGQGTQVTVSS | high polyreactivity |
| QVQLVESGGGLVQAGGSLRLSCAASGSTFRYYTMGWYRQAPGKERELVADITIGGSTYYADSVKGRFTISRDNSKNSVYLQMYSLKPEDTAVYYCAARSTGGRIFATGVAYAYWGQGTQVTVSS | low polyreactivity |
| QVQLVESGGGLVQAGGSLRLSCAASGSTFRYYVMGWYRQAPWKERELVAGITKSGGNTYYADSVKGRFTISRDNAKNTVYLQMNSLKPEDTAVYYCAARGLWTRGYYYWGQGTQVTVSS | high polyreactivity |
